Laboratory results from paper PMC11499148.

biological target: soluble human FcRn (human) (UniProt P55899); test: SPR; pH 6.0
Chain of UniProt P55899 (P55899 24-297, chain 1 of 2): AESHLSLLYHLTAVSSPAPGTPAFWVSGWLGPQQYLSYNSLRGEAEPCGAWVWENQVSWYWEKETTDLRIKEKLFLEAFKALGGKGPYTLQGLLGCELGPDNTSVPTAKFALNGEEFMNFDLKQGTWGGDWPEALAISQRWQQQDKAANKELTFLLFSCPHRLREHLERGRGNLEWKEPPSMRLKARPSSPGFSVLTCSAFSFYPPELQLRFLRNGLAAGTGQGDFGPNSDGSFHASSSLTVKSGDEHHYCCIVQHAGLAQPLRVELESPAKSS
Chain of UniProt P55899 (P61769 21-119, chain 2 of 2, further chain): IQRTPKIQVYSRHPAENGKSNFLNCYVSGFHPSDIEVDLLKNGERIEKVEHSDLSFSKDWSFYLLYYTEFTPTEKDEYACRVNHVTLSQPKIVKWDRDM

Substance | Kd [nM]
hAK23-IgG1-DHS | 137
hAK23-IgG1-WT | 334
hAK23-IgG4-DHS | 64
hAK23-IgG4-WT | 215
